The text below walks through data of article PMC11807975, “The secreted host-cell protein clusterin interacts with PmpD and promotes Chlamydia trachomatis infection” (Frontiers in Cellular and Infection Microbiology, 2024).

Several values for one entry are separate records, joined by “and”; a condition that tells them apart may be missing. Identical values can stand only once.

This data set concerns the molecule itself. Put plainly: native gel or EMSA; Blue Native-PAGE (Native PAGE Novex 3-12% Bis-Tris) of the SEC elution fraction of rD72 at 1.4 ml; Coomassie stain. Background: Mobility shift assays separate free from complexed probe on a gel.

B1: recombinant D72 (rD72), proteolytically processed fragment of Chlamydia trachomatis serovar E PmpD, residues 68-761, N-terminal 10x His-Tag (domain or fragment)
chain: DSQAEGQYRLIVGDPSSFQEKDADTLPGKVEQSTLFSVTNPVVFQGVDQQDQVSSQGLICSFTSSNLDSPRDGESFLGIAFVGDSSKAGITLTDVKASLSGAALYSTEDLIFEKIKGGLEFASCSSLEQGGACAAQSILIHDCQGLQVKHCTTAVNAEGSSANDHLGFGGGAFFVTGSLSGEKSLYMPAGDMVVANCDGAISFEGNSANFANGGAIAASGKVLFVANDKKTSFIENRALSGGAIAASSDIAFQNCAELVFKGNCAIGTEDKGSLGGGAISSLGTVLLQGNHGITCDKNESASQGGAIFGKNCQISDNEGPVVFRDSTACLGGGAIAAQEIVSIQNNQAGISFEGGKASFGGGIACGSFSSAGGASVLGTIDISKNLGAISFSRTLCTTSDLGQMEYQGGGALFGENISLSENAGVLTFKDNIVKTFASNGKILGGGAILATGKVEITNNSEGISFTGNARAPQALPTQEEFPLFSKKEGRPLSSGYSGGGAILGREVAILHNAAVVFEQNRLQCSEEEATLLGCCGGGAVHGMDSTSIVGNSSVRFGNNYAMGQGVSGGALLSKTVQLAGNGSVDFSRNIASLGGGALQASEGNCELVDNGYVLFRDNRGRVYGGAISCLRGDVVISGNKGRVEFKDNIATRLYVEETVEKVEEVEPAPEQKDNNELSFLGRAEQSFITAANQA
notes: In solution a high-molecular-weight oligomer (720-1048 kDa by Blue Native-PAGE, calculated 10- to 15-mer); also called rPmpD; His-PmpD; source: E. coli Origami, purified (Ni-NTA agarose, dialysed in PBS); not shown: 10xHis, N-terminal, kept; copies: 10-15
What is called stoichiometry N is a count of units in the complex or per binding partner. As for B1, the “stoichiometry N” value was 10 and 15.
